Measurements from patent US20240325562A1 (LINXIS B V, published 2024).

T1: recombinant rPDGFRB ectodomain (rat, UniProt Q05030 32-531)
T1 construct: extracellular domain; also called rPDGFRB-ECD; rat PDGFRB ECD
T1 sequence (looked up): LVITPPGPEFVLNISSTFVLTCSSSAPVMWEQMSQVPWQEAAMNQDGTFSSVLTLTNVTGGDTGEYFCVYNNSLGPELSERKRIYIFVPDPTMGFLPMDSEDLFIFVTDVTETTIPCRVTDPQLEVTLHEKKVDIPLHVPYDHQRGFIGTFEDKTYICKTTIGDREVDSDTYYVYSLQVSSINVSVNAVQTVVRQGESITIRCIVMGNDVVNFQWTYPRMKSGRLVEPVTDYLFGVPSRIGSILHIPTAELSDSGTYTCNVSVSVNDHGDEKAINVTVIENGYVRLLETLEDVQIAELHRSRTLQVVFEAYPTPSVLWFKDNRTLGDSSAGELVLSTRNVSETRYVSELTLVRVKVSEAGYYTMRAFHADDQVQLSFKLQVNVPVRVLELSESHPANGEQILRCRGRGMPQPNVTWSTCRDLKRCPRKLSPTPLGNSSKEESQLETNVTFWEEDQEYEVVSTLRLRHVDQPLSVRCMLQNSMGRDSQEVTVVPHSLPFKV

B1: SP30P (VHH)
VHH: EVQLVESGGGLVQAGGSLRLSCAASRGTFGTDIMGWFRQAPGKEREFVAAISWRGANTYYGYSVKGRFTISRDNAKNTMYLQMADLKPEDTADYYCGVHLNGTPYYYASGYRYWGQGTQVTVSS
notes: From libraries 3 and 4 (raised against rPDGFRB)
B2: SP31P (VHH)
VHH: EVQLVESGGGLVQAGGSLRLSCAASRGTFGTYIMGWFRQAPGKEREFVAAISWRGANTYYGYSVKGRFTISRDNAKNTMYLQMADLKPEDTADYYCGVHLNGTPYYYASGYRYWGQGTQVTVSS
notes: as for B1
B3: SP28P (VHH)
VHH: EVQLVESGGGLVQAGGSLRLSCAASGSIVSFNGINWYRQAPGKQREWVGGITQGGNTMYADSVRGRFTISRDNTKNTMYLQMNSLKPEDTAVYYCRRPPVASWGQGTQVTVSS
notes: as for B1
B4: SP36P (VHH)
VHH: EVQLVESGGGLVQAGGSLRLSCTPSITTAGTTIMAWFRQAPGNEREFVAAIWGSKTAYGDSMKGRLTISRDNVRDNGQKTVFLQMNNLQLQDTATYYCAASSGGYVHSSTSYEIWGRGTQVTVSS
notes: as for B1
B5: SP27P (VHH)
VHH: EVQLVESGGGLVQIGDSLRLSCAASGGTFNRYGMGWFRQAPGKEREFVAAIRWDGVDTNYADFVKGRFTISRYNAKNTAYLQMNSLKPEDTAVYYCAADRRGLYTKHAHRYDYWGQGTQVTVSS
notes: as for B1
B6: 13F11-13F11-A647 (VHH)
chain: EVQLVESGGRLVQPGDSLRLSCAASGRTFSDNAMGWFRQAPGKERRFVAGISWAGGSTYYSDSVKGRFTISRDNAKNTVYLQMNSLKPEDTAVYYCAAGLRAWVQRMPKDYNYWGQGTQVTVSSGGGGSGGGGSGGGGSEVQLVESGGRLVQPGDSLRLSCAASGRTFSDNAMGWFRQAPGKERRFVAGISWAGGSTYYSDSVKGRFTISRDNAKNTVYLQMNSLKPEDTAVYYCAAGLRAWVQRMPKDYNYWGQGTQVTVSS
modifications: Alexa Fluor 647 coupled by maleimide to the C-terminal free cysteine, which is not in the letters
notes: Bivalent tandem VHH; not shown: C-terminal tail: free Cys, possible thrombin site and His6 tag
B7: 13E5 (VHH)
VHH: EVQLVESGGGLVQAGGSLRLSCAASGLTFSRYTMSWYRQAPGKEREVVAAISSGDSTYHEDSVKGRFIISRDNAKNTVYLQMNSLKTEDTAVYYCRANGPGTYWGQGTQVTVSS
notes: On phage in the phage ELISA; tail applies to the purified protein
B8: 13A2 (VHH)
VHH: EVQLVESGGGLVQAGGSLRLSCAASGIIFSANTVGWYRQVPGKERDVVASITSGDSTYYGDSVRDRFTISRDNAKNTVYLQMNSLKPDDTAIYYCRARTTDGSYWGQGTQVTVSS
notes: as for B7
B9: 13B12 (VHH)
VHH: EVQLVESGGGLVQAGGSLRLSCAASGIIFGANTVGWYRQVPGKERDVVASITSVDSTYYGDSVRGRFTISRDNAKNTVYLQMNSLKPEDTAIYYCRARTTDGSYWGQGTQVTVSS
notes: as for B7
B10: 13D11 (VHH)
VHH: EVQLVESGGGLVQAGGSLRLSCAASGSIFSINYMAWYRQAPGKEREVVASMSWRRDSTYLADSVQGRFTISRNNAKNTMYLQMNSLKPEDTALYYCKANDYWGQGTQVTVSS
notes: as for B7
B11: 13F4 (VHH)
VHH: EVQLVESGGGLVQAGGSLRLSCVASGSIFSINYMAWYRQTPGKEREVVASMSRRSDSTYLADAVQGRFTISRNNAGNTMYLQMNSLKPEDTALYYCKANDYWGQGTQVTVSS
notes: as for B7
B12: 13A3 (VHH)
VHH: EVQLVESGGGLVQAGGSLRLSCAASGSIFRLNYMAWYRQAPGKEREVVASMSRRSDSTYLADAVQGRFTISMNNAGNTMYLQMNSLKPEDTALYYCKANDYWGQGTQVTVSS
notes: as for B7
B13: 13A8 (VHH)
VHH: EVQLVESGGGLVPAGGSLRLSCAASGRTFSNYAMGWFRQAPGKERKFVATISWSGGVTYYADSVKGRFTISRDNAKNTVYLLMNSLKPEDTAVYYCAAKRDSSSYDHRRYDYWGQGTQVTVSS
notes: On phage in the phage ELISA; purified from E. coli in the other assays
B14: 13B7 (VHH)
VHH: EVQLVESGGGLVQAGGSLRLSCAASRSISPMGWYRQAPGKQRELVAIMPSSGTPIYADSVQGRFTISRDNAKNTVYLQMNSLKPEDTAVYYCNVGGGYWGQGTQVTVSS
notes: as for B7
B15: 13G12 (VHH)
VHH: EVQLVESGGGLVQAGGSLRLSCAASGRAFSISSMSWFRQAPGKERVVVASIAWSGDSTYYADSVQGRFTISKDNAKNTLSLQMNSLKPEDTAVYYCSAYTQVSVNNRYWGQGTQVTVSS
notes: the first entry is used; On phage in the phage ELISA
B16: SP12P (VHH)
VHH: EVQLVESGGGLVQAGGSLRLSCVISGRTSPTYPMGWFRQSPGNEREFVASINWSGGWRNYADSVKGRFTISRDDAKNTVYLQMNSLKPEDTAVYYCARGQYSSGTPVYAHEYAYWGQGTQVTVSS
notes: From libraries 1 and 2 (raised against hPDGFRB)
B17: SP20P (VHH)
VHH: EVQLVESGGGLVQAGGSLRLSCVISGRTSPTYPMGWFRQSPGNEREFVASINWSGGWRNYADSVKDRFTISRDDAKNTVYLQMNSLKPEDTAVYYCARGQYSSGTPVYAHEYAYWGQGTQVTVSS
notes: as for B16
B18: SP14P (VHH)
VHH: EVQLVESGGGLVQAGDSLRLSCVVSGLTFSRYGMGWFRQATGKEREFVGGISVGSSGTMYPNSVKGRFTISRDNAKSTVYLQMNSLKPEDTAVYFCAAIDQGSFVQQRDYRYWGQGTQVTVSS
notes: as for B16
B19: SP02P (VHH)
VHH: EVQLVESGGGLVQAGGSLRLSCAASESISSIEQMGWFRQAPGKQRALVAINTYGGRTVYTNSVEGRFTMSRDSAKNMVYLQMTSLEPEDTAVYYCYAQTTAWRGGVWGQGTQVTVSS
notes: as for B16
B20: SP01P (VHH)
VHH: EVQLVESGGGLAQAGGSLRLSCVASGNIDSANGMAWYRQAPGKQRELVAHITSGTSYYVASVEGRFTISRANAKDTWYLQMNSLKPEDTGVYYCFPIGLSAHWSQGTQVTVSS
notes: as for B16
B21: SP13P (VHH)
VHH: EVQLVESGGGLVQPGGSLRLSCAASESIFSINYMAWYRQAPGKQRELVAFSIDGSSTNYVDSVRGRFTASRDNAENTLYLQMNSLKPEDTAVYYCYAQGNTWAAGVWGQGTQVTVSS
notes: as for B16
B22: SP08P (VHH)
VHH: EVQLVESGGGLVQAGGSLRLSCAASGRTFNGYAMAWFRQAPGKERDFVASITWSYGYTYYADSAQGRFTISRDSAKNTVYLEMNSLKPEDTAVYYCAADPKASRFRILRQYAHWGQGTQVTVSS
notes: as for B16
B23: SP05P (VHH)
VHH: EVQLVESGGGLVQAGGSLRLSCAASGRTSFSGYAMAWFRQAPGKERDFVASITWSYGYTYYTDSAQGRFTISRDSAKNTVYLEMNSLKPEDTAVYYCAADPKASRFRILREYAYWGQGTQVTVSS
notes: as for B16
B24: SP10P (VHH)
VHH: EVQLVESGGGLVQAGGSLRLSCAASGRTFNGYAMGWFRQAPGKERDFVAAITWSYGYTHYAESVKGRFSISRDSANNMVYLEMNSLKPEDTAVYYCAADPKASRFRTLRRYDYWGQGTQVTVSS
notes: as for B16

biological target: T1, recombinant rPDGFRB ectodomain; assay: phage ELISA and binding assay on rPDGFRB-ECD; values only in FIG. 6

Question: Does B1 bind?
Answer: Result: binds

Question: Does B2 bind?
Answer: Result: binds

Question: Does B3 bind?
Answer: Result: binds

Question: Does B4 bind?
Answer: Result: binds

Question: Does B5 bind?
Answer: Result: binds

biological target: T2, recombinant human extracellular domain of IGF2R (human, UniProt P11717 41-2304); assay: direct binding assay of the Alexa Fluor 647 conjugate on hIGF2R-ECD, one-site specific binding fit
T2 construct: extracellular domain; Recombinant, immobilized on plates; also called hIGF2R-ECD; human IGF2R ectodomain (ECD)
Method: These conjugates were then subjected to direct binding assays on immobilized hIGF2R-ECD, meaning that plates were read out immediately after washing, without additional detection steps. […] For detailed analysis, binding parameters KD and Bₘₐₓ were calculated in Graphpad (version 8.3), using one-site specific binding analysis (FIG. 8D).
Based on their high affinity and binding to non-overlapping receptor epitopes, VHHs 13F11 and 13E8 were selected for the design of biparatopic and bivalent VHH constructs. Two VHHs were fused with a flexible linker, consisting of three Gly-Gly-Gly-Gly-Ser repeats (FIG. 8A). The sequences were codon optimized for expression in E. coli and obtained as synthesized DNA fragments from GeneArt. The DNA fragments encoding VHHs were cloned into a vector pET28-based vector introducing a C-terminal free cysteine for site-directed conjugation and His6 tag for IMAC purification (FIG. 8A). The VHH constructs were produced and purified as described in example 4. […] In a similar binding assay, IR dye 800 (IRD800) conjugates were prepared (as outlined in example 10.2) of the monomeric VHHs 13F11 and 13E8, the biparatopic VHH construct 13F11-13E8, the reciprocal biparatopic construct 13E8-13F11, the bivalent VHH construct 13F11-13F11, and the non-binding (control-) VHH R2. Conjugated constructs were then subjected to binding assay as described above.

Question: How did the Kd turn out when B6 was run?
Answer: Its Kd is 3.1 nM.

biological target: T2, recombinant human extracellular domain …; assay: phage ELISA on hIGF2R-ECD
Method: After the second selection round, 94 phage clones were randomly picked and assessed for binding to hIGF2R-ECD in a phage ELISA. Clones showing affinity were analyzed by restriction enzyme analysis using Hinfl and then categorized according to their restriction pattern. From each category, multiple clones were selected, and the amino acid sequences of these binders were identified (Table 2).

Question: Does B7 bind?
Answer: Result: binds

Question: Does B8 bind?
Answer: Result: binds

Question: Does B9 bind?
Answer: Result: binds

Question: Does B10 bind?
Answer: Result: binds

Question: Does B11 bind?
Answer: Result: binds

Question: Does B12 bind?
Answer: Result: binds

Question: Does B13 bind?
Answer: Result: binds

Question: Does B14 bind?
Answer: Result: binds

Question: Does B15 bind?
Answer: Result: binds

biological target: T3, recombinant hPDGFRB ectodomain (human, UniProt P09619 33-532); assay: phage ELISA and binding assay on hPDGFRB-ECD; values only in FIG. 5
T3 construct: extracellular domain; also called hPDGFRB-ECD; human PDGFRB ECD
T3 sequence (P09619 33-532): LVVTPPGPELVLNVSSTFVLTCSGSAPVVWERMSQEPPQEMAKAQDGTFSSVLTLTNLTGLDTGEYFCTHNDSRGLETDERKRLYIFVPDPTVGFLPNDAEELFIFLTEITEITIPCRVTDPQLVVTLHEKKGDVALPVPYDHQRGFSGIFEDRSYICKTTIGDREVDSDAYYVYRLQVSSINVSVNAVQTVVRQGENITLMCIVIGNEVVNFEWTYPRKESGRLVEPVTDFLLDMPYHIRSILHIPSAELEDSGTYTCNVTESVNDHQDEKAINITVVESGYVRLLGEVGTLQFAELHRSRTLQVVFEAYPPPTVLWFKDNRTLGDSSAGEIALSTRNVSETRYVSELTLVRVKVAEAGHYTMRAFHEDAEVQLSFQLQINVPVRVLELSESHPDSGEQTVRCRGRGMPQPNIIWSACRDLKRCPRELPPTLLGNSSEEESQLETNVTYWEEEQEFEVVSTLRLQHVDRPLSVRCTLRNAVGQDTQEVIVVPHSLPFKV

Question: Does B16 bind?
Answer: Result: binds

Question: Does B17 bind?
Answer: Result: binds

Question: Does B18 bind?
Answer: Result: binds

Question: Does B19 bind?
Answer: Result: binds

Question: Does B20 bind?
Answer: Result: binds

Question: Does B21 bind?
Answer: Result: binds

Question: Does B22 bind?
Answer: Result: binds

Question: Does B23 bind?
Answer: Result: binds

Question: Does B24 bind?
Answer: Result: binds
